Laboratory results reported in patent US8563503B2, “Antibiotic, its nucleotide sequence, methods of construction and uses thereof” (Protein Design Lab. Ltd., priority 2011, dated 2013).

How the values were obtained:
[1] = tested on: methicillin-resistant Staphylococcus aureus ATCC BAA-42; assay: Bacteria growth curve (A595 nm), comparison of the novel antibiotics; type: cell-based; conditions: drug 5 μg/ml, 37° C., A595 nm per hour
Outline: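 MRSA ATCC BAA-42 (10^6 CFU/ml inoculum level) grown in peptone/NaCl/yeast extract/glucose/K2HPO4 broth at 37 °C, 200 rpm, with each polypeptide at 5 μg/ml; buffer (0.3 M NaCl + 50 mM boric acid) and penicillin G 5 μg/ml as controls. Turbidity (A595 nm) sampled hourly for growth curves.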

[2] = tested on: Staphylococcus epidermidis reference culture No. 26069; assay: Bacteria growth curve (A595 nm cloudiness), Staphylococcus epidermidis; type: cell-based; conditions: drug 2 μg/ml, 37° C., A595 nm per hour
Method: The bacterium is Staphylococcus epidermidis reference culture No. 26069, purchased from China Center of Culture Collection (National Institute for the Control of Pharmaceutical and Biological Products). 3 microliter of bacterium solution (10^6 CFU/ml level bacterium amount) was added into 10 ml culture solution containing 1% peptone, 1% NaCl, 0.5% yeast extract, 0.5% glucose and 0.1% K2HPO4. Totally four groups were prepared. The first group as control was added 0.3M NaCl+50 mM boric acid buffer fluid by the same volume with that of antibiosis polypeptide liquid added in any experimental groups, the second group was added penicillin G sodium by 2 μg/ml, PMC-SA1 and PMC-SE was added in the other experimental groups by 2 μg/ml (0.3 M NaCl+50 mM boric acid buffer fluid was preservative fluid).
The solution of above groups was put into 100 ml conical flask, 200 rpm, grew at 37° C. 100 μl was sampled per hour, and added onto 96-pore ELISA plate to measure bacteria grown cloudiness by spectrophotometer (A595 nm) color comparison. The bacteria growth curve was drawn up to compare the bacteriostasis efficacy of the novel antibiotics.

[3] = Immunization of mice, valence of mouse sera by indirect ELISA; type: in vivo; conditions: from valence of mouse sera
Method: Allosteric peptide of Colicin Ia, i.e. Ia′, PMC-SA1 obtained in embodiment 1, wild-type colicin Ia and the anti-Staphylococcus aureus peptide (ZL01128836.1) which invented by the present inventor were taken respectively to immunize mice. After admixturing with the adjuvant, the above proteins were interaperitonea injected respectively to the mice by 50 μg per mouse for one time of foundational quantity and 50 μg per mouse for one time of additional quantity totally 5 times by two weeks interval. Indirect ELISA detection method was applied to detect the valence of mouse sera (Xiao Yi, et. al., Preparation and preliminary characterization of monoclonal antibodies against Pheromonicin-and-Staphylococcus aureus, Shanxi Medical Journal, 35(1): 6-7, 32 (2006)). The valence of mouse sera which immunized by wild type colicin Ia as well as anti-Staphylococcus aureus polypeptide (ZL01128836.1) was 10^−4 to 10^−5, while the valence of mouse sera which immunized by allosteric peptide of colicin Ia and PMC-SA1 was 10^−2 to 10^−3.

[4] = tested on: ATCC 25923 penicillin-sensitive Staphylococcus aureus; assay: Bacteria growth curve (A595 nm cloudiness), penicillin-sensitive Staphylococcus aureus; type: cell-based; conditions: drug 100 ng/ml, 37° C., A595 nm per hour
Method: The bacterium was United States Reference Culture ATCC 25923 penicillin-sensitive Staphylococcus aureus. 2 microliter of bacteria solution (10^5 CFU/ml) was added into 10 ml culture solution containing 1% tryptone, 1% NaCl, 0.5% yeast extract, 0.5% glucose and 0.1% K2HPO4, totally prepared six groups. The first group as control was added 0.3 M NaCl+50 mM boric acid buffer fluid (i.e. blank preservative fluid for novel antibiotic, wild-type colicin Ia and protein produced by BL-21 engineering bacteria without plasmid, by the same volumes of antibiosis polypeptide liquid in the experimental group, the second group was added penicillin G sodium by 100 ng/ml, the third group was added wild-type colicin Ia by 100 ng/ml, the fourth group was added protein produced by BL-21 engineering bacteria without plasmid by 100 ng/ml, the fifth group was added recombinant protein that C-terminus of colicin Ia is fused other eight peptides by 100 ng/ml, and the sixth group was added the novel antibiotic PMC-SA1 by 100 ng/ml.
The solutions of the six groups were respectively put into 100 ml conical flask, 200 rpm, grew at 37° C. 100 μl was sampled per hour, and added onto 96 hole ELISA Plate and measured bacterium growth cloudiness by spectrophotometer (A595 nm) color comparison. The bacteria-growth curve was drawn up to compare the bacteriostasis efficacy of novel antibiosis.

Enterococcus = assay: MIC by Agar Doubling Dilution Method, clinical isolates; type: cell-based, Enterococcus faecalis; conditions: Enterococcus clinical strains
Outline: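 Agar doubling dilution on Mueller-Hinton agar plates holding serial drug concentrations; inocula of 10^5 CFU/ml per spot applied by multipoint inoculator. Enterococcus grown in MH medium with 5-10% defibrinated rabbit blood at 37° C, 5% CO2. Plates read after 18-24 h at 37° C; MIC = lowest concentration with no growth.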

B1: PMC-SA1: Staphylococcus aureus pheromone AgrD I linked to C-terminus of allosteric colicin Ia′; SEQ ID NO. 13; plasmid pBHC-SA1 (protein)
chain: SDPVRITNPAAESLGYDSDGREIMGVDIYLNPPRVDVFKGTPPAWSSFGNKTIWGGNEWVDDSPTRSDIEKRDKEITAYKNTLSAQQKENENKRTEAGKRLSAAIAAREKDENTLKTLRAGNADAADITRQEFRLLQAELREYGFRTEIAGYDALRLHTESRMLFADADSLRISPREARSLIEQAEKRQKDAQNADKKAADMLAEYERRKGILDTRLSELEKNGGAALAVLDAQQARLLGQQTRNDRAISEARNKLSSVTESLNTARNALTRAEQQLTQQKNTPDGKTIVSPEKFPGRSSTNHSIVVSGDPRFAGTIKITTSAVIDNRANLNYLLSHSGLDYKRNILNDRNPVVTEDVEGDKKIYNAEVAEWDKLRQRLLDARNKITSAESAVNSARNNLSARTNEQKHANDALNALLKEKENIRNQLSGINQKIAEEKRKQDELKATKDAINFTTEFLKSVSEKYGAKAEQLAREMAGQAKGKKIRNVEEALKTYEKYRADINKKINAKDRAAIAAALESVKLSDISSNLNRFSRGLGYAGKFTSLADWITEFGKAVRTENWRPLFVKTETIIAGNAATALVALVFSILTGSALGIIGYGLLMAVTGALIDESLVEKANKFWGIYSTCDFIM
modifications: The peptide of PMC-SA1
notes: Staphylococcus aureus pheromone AgrD I linked to C-terminus of allosteric colicin Ia′; 13; plasmid pBHC-SA1
- bacteriostasis effect on growth of methicillin-resistant Staphylococcus aureus (bacteria growth curve) [1]: the best
- growth of Staphylococcus epidermidis (bacteria growth curve) [2]: partly restrained
- possibility of causing host allergic reaction relative to anti-Staphylococcus aureus polypeptide [3]: lower one to two order of magnitude
- growth of penicillin-sensitive Staphylococcus aureus (bacteria-growth curve) [4]: restrained
- MIC50 (Enterococcus): >64 µg/mL
- MIC90 (Enterococcus): >64 µg/mL
